According to publication PMC9482650, “Quantitative fragmentomics allow affinity mapping of interactomes” (Nature Communications, 2022):

T1: ARHGEF11, O15085
T1 sequence (O15085 42-136, limits assumed, looked up): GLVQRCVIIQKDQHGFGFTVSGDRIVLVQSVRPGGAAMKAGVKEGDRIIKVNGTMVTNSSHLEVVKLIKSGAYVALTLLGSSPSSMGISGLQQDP

T2: DFNB31_2, Q9P202
T2 sequence (Q9P202 274-371, limits assumed, looked up): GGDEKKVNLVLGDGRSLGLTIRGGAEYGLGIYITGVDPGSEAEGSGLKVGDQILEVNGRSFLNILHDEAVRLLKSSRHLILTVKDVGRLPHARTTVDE

T3: DLG3_1, Q92796
T3 sequence (Q92796 125-227, limits assumed, looked up): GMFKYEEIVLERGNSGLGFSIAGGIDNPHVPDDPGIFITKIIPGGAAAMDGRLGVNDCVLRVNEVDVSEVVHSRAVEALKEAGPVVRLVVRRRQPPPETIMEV

T4: GRIP1_7, Q9Y3R0
T4 sequence (Q9Y3R0 999-1096, limits assumed, looked up): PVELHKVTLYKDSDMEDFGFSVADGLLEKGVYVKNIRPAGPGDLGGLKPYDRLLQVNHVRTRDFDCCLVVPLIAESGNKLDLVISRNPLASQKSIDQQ

T5: HTRA3, P83110
T5 sequence (P83110 354-453, limits assumed, looked up): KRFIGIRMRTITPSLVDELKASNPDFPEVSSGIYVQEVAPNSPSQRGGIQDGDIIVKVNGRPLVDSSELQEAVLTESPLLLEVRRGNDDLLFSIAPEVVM

T6: LIN7C, Q9NUP9
T6 sequence (Q9NUP9 88-185, limits assumed, looked up): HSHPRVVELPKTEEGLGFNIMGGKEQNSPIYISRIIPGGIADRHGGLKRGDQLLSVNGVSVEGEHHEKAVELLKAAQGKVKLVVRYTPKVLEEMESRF

T7: LNX2_3, Q8N448
T7 sequence (Q8N448 463-564, limits assumed, looked up): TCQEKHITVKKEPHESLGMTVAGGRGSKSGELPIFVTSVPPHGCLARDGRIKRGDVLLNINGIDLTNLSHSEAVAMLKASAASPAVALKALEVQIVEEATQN

T8: MPDZ_5, O75970
T8 sequence (O75970 695-796, limits assumed, looked up): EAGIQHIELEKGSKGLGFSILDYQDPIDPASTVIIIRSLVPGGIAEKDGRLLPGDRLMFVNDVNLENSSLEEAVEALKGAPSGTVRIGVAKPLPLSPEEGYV

T9: PARD3B_1, Q8TEW8
T9 sequence (Q8TEW8 196-299, limits assumed, looked up): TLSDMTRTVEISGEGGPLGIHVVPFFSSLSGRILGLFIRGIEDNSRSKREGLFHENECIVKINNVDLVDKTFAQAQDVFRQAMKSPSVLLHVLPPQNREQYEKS

T10: PDZD2_2, O15018
T10 sequence (O15018 329-429, limits assumed, looked up): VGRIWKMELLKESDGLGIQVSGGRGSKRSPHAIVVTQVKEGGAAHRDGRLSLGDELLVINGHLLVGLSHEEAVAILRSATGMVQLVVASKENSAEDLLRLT

T11: SNTA1, Q13424
T11 sequence (Q13424 82-180, limits assumed, looked up): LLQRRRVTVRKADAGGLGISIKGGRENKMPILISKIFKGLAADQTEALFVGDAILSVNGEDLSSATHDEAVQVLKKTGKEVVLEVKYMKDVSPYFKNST

T12: TX1BP3, O14907
T12 sequence (O14907 10-122, limits assumed, looked up): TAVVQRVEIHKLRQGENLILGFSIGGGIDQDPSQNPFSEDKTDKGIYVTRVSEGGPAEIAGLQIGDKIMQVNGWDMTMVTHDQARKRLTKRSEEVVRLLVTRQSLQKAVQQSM


Tests used:
Assay in all cases: holdup assay
Parameters in all cases: key: below the threshold = too weak to quantify, mostly under pKd 3.1 to 4
Details in all cases: plain residues with an end cap or a label only (N-terminal biotin on a linker: ado-ado)
ARHGEF11, O15085 = target: T1, ARHGEF11, O15085
DFNB31_2, Q9P202 = target: T2, DFNB31_2, Q9P202
DLG3_1, Q92796 = target: T3, DLG3_1, Q92796
FRMPD2_2, Q68DX3 = target: FRMPD2_2, Q68DX3
FRMPD4, Q14CM0 = target: FRMPD4, Q14CM0
GOPC, Q9HD26 = target: GOPC, Q9HD26
GORASP2, Q9H8Y8 = target: GORASP2, Q9H8Y8
GRID2IP_2, A4D2P6 = target: GRID2IP_2, A4D2P6
GRIP1_7, Q9Y3R0 = target: T4, GRIP1_7, Q9Y3R0
HTRA3, P83110 = target: T5, HTRA3, P83110
Inadl_1, Q8NI35 = target: Inadl_1, Q8NI35
Inadl_3, Q8NI35 = target: Inadl_3, Q8NI35
Inadl_5, Q8NI35 = target: Inadl_5, Q8NI35
LAP2, Q96RT1 = target: LAP2, Q96RT1
LIN7C, Q9NUP9 = target: T6, LIN7C, Q9NUP9
LNX2_3, Q8N448 = target: T7, LNX2_3, Q8N448
MPDZ_5, O75970 = target: T8, MPDZ_5, O75970
NHERF2_2, Q15599 = target: NHERF2_2, Q15599
PARD3B_1, Q8TEW8 = target: T9, PARD3B_1, Q8TEW8
PDZD2_2, O15018 = target: T10, PDZD2_2, O15018
SCRIB_2, Q14160 = target: SCRIB_2, Q14160
SNTA1, Q13424 = target: T11, SNTA1, Q13424
TJP1_2, Q07157 = target: TJP1_2, Q07157
TX1BP3, O14907 = target: T12, TX1BP3, O14907

GRID2IP_2, A4D2P6, sequence (A4D2P6 272-370): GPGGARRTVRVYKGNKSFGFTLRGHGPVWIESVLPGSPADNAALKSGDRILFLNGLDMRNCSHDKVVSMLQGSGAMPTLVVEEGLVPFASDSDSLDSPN
NHERF2_2, Q15599, sequence (Q15599 142-238): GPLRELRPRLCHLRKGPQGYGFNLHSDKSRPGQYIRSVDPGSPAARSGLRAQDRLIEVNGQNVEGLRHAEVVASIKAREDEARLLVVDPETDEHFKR
LAP2, Q96RT1, sequence (Q96RT1 other isoform, or with tags, fused parts or gaps): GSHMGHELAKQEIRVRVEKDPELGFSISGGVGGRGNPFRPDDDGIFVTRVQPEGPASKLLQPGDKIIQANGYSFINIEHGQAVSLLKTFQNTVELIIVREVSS
Inadl_5, Q8NI35, sequence (Q8NI35 673-780): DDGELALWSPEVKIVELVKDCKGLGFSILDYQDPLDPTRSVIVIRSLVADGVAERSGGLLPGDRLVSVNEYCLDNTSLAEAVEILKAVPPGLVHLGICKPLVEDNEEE
TJP1_2, Q07157, sequence (Q07157 181-274): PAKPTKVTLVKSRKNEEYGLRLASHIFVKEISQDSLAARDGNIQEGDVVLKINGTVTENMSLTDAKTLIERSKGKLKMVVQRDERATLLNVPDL
Inadl_3, Q8NI35, sequence (Q8NI35 359-469): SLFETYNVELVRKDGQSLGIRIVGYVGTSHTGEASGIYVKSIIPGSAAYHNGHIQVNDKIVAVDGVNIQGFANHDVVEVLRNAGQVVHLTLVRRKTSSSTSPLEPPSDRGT
FRMPD4, Q14CM0, sequence (Q14CM0 67-160): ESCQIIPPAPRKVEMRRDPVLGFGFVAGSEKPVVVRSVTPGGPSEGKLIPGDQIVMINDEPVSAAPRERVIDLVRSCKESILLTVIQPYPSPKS
SCRIB_2, Q14160, sequence (Q14160 857-960): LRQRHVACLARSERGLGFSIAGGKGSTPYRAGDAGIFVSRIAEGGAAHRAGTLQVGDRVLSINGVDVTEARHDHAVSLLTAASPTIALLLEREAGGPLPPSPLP
Inadl_1, Q8NI35, sequence (Q8NI35 113-229): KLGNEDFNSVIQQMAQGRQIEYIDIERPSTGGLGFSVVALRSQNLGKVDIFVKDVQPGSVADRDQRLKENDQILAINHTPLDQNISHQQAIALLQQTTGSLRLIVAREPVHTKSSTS
FRMPD2_2, Q68DX3, sequence (Q68DX3 944-1038): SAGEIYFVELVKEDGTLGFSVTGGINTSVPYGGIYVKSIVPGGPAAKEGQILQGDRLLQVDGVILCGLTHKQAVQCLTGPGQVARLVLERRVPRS

| pKd (ARHGEF11, O15085) | pKd (DFNB31_2, Q9P202) | pKd (DLG3_1, Q92796) | pKd (FRMPD2_2, Q68DX3) | pKd (FRMPD4, Q14CM0) | pKd (GOPC, Q9HD26) | pKd (GORASP2, Q9H8Y8) | pKd (GRID2IP_2, A4D2P6) | pKd (GRIP1_7, Q9Y3R0) | pKd (HTRA3, P83110) | pKd (Inadl_1, Q8NI35) | pKd (Inadl_3, Q8NI35) | pKd (Inadl_5, Q8NI35) | pKd (LAP2, Q96RT1) | pKd (LIN7C, Q9NUP9) | pKd (LNX2_3, Q8N448) | pKd (MPDZ_5, O75970) | pKd (NHERF2_2, Q15599) | pKd (PARD3B_1, Q8TEW8) | pKd (PDZD2_2, O15018) | Binder | also measured |
| --- | --- | --- | --- | --- | --- | --- | --- | --- | --- | --- | --- | --- | --- | --- | --- | --- | --- | --- | --- | --- | --- |
| 3.78 | below the threshold | below the threshold | below the threshold | 4.39 | 3.83 | below the threshold | below the threshold | below the threshold | below the threshold | below the threshold | below the threshold | below the threshold | below the threshold | below the threshold | below the threshold | below the threshold | 4.51 | 4.51 | 3.71 | DSEEELPTRL [GRK6, P43250] | pKd (SCRIB_2, Q14160): below the threshold; pKd (SNTA1, Q13424): below the threshold; pKd (TJP1_2, Q07157): below the threshold; pKd (TX1BP3, O14907): below the threshold |
| below the threshold | below the threshold | below the threshold | below the threshold | below the threshold | below the threshold | below the threshold | below the threshold | below the threshold | below the threshold | below the threshold | below the threshold | below the threshold | below the threshold | below the threshold | below the threshold | below the threshold | 3.7 | 4.05 | below the threshold | QKASRNESTF [POLR1D, P0DPB6] | pKd (SCRIB_2, Q14160): below the threshold; pKd (SNTA1, Q13424): below the threshold; pKd (TJP1_2, Q07157): below the threshold; pKd (TX1BP3, O14907): below the threshold |
| 4.42 | below the threshold | below the threshold | 4.76 | below the threshold | 4.09 | 4.01 | 4.63 | below the threshold | 3.71 | below the threshold | 4.43 | below the threshold | 3.84 | 4.11 | below the threshold | below the threshold | 3.86 | 3.91 | 4.64 | KIEDVEITLV [FCHSD2, O94868] | pKd (SCRIB_2, Q14160): below the threshold; pKd (SNTA1, Q13424): 3.76; pKd (TJP1_2, Q07157): below the threshold; pKd (TX1BP3, O14907): 3.98 |

More lines, now with the values behind:

| Binder | pKd (ARHGEF11, O15085) | pKd (DFNB31_2, Q9P202) | pKd (DLG3_1, Q92796) | pKd (FRMPD2_2, Q68DX3) | pKd (FRMPD4, Q14CM0) | pKd (GOPC, Q9HD26) | pKd (GORASP2, Q9H8Y8) | pKd (GRID2IP_2, A4D2P6) | pKd (GRIP1_7, Q9Y3R0) | pKd (HTRA3, P83110) | pKd (Inadl_1, Q8NI35) | pKd (Inadl_3, Q8NI35) | pKd (Inadl_5, Q8NI35) | pKd (LAP2, Q96RT1) | pKd (LIN7C, Q9NUP9) | pKd (LNX2_3, Q8N448) | pKd (MPDZ_5, O75970) | pKd (NHERF2_2, Q15599) | pKd (PARD3B_1, Q8TEW8) | pKd (PDZD2_2, O15018) | also measured |
| --- | --- | --- | --- | --- | --- | --- | --- | --- | --- | --- | --- | --- | --- | --- | --- | --- | --- | --- | --- | --- | --- |
| RDYTQSSSSL [GRM5, P41594] | 3.79 | below the threshold | below the threshold | below the threshold | 3.65 | 3.55 | below the threshold | 4.12 | below the threshold | below the threshold | below the threshold | below the threshold | below the threshold | below the threshold | below the threshold | below the threshold | below the threshold | 4.52 | 3.82 | 3.83 | pKd (SCRIB_2, Q14160): below the threshold; pKd (SNTA1, Q13424): below the threshold; pKd (TJP1_2, Q07157): below the threshold; pKd (TX1BP3, O14907): 3.53 |
| KPDKQEEFYA [SDC3, O75056] | below the threshold | below the threshold | below the threshold | below the threshold | 3.49 | below the threshold | below the threshold | below the threshold | below the threshold | 4.41 | below the threshold | below the threshold | below the threshold | below the threshold | below the threshold | below the threshold | below the threshold | below the threshold | 4.65 | below the threshold | pKd (SCRIB_2, Q14160): below the threshold; pKd (SNTA1, Q13424): below the threshold; pKd (TJP1_2, Q07157): below the threshold; pKd (TX1BP3, O14907): below the threshold |
| KEKASTETEC [TRPM1, Q7Z4N2] | below the threshold | below the threshold | below the threshold | below the threshold | below the threshold | below the threshold | below the threshold | below the threshold | below the threshold | 3.58 | below the threshold | below the threshold | below the threshold | 3.67 | 3.93 | below the threshold | below the threshold | below the threshold | 3.97 | below the threshold | pKd (SCRIB_2, Q14160): 3.52; pKd (SNTA1, Q13424): 3.77; pKd (TJP1_2, Q07157): below the threshold; pKd (TX1BP3, O14907): below the threshold |
